{"source": "paper PMC6011931", "about": "“Substrate scope of a dehydrogenase from Sphingomonas species A1 and its potential application in the synthesis of rare sugars and sugar derivatives” (Microbial Biotechnology, 2018)", "proteins": {"B1": {"name": "SpsADH (Sphingomonas sp. A1) (protein)", "chain": "MFSDLKGKRILITGSTEGIGMATAIELARYGAVVGLNSHVDPADPALLLGKLREAGGDGAFFRADITKTAECQRLVSAFVERFDGIDVLINNAGGLAGRSNLENIDDAFYDRVMDLNGRSVLMMTKFAIPHLRASAKASGTTSAVISTGSIAAREGGGIGAGVYAASKAWLHDIHRNWVKEFTKDSIRFNIVAPGTVDTAFHADKSDELKTRIANSIPMGRFGTVQELAPAYVFFASHAASGYITGQILDVNGGQICP", "notes": "full length (258 residues), codon-optimised synthetic gene, N-terminal His6-tag kept (pET-28a), E. coli BL21(DE3), 29 500 Da; NAD+-dependent isoenzyme (printed locus SPH3227 may belong to the NADP+-dependent isoenzyme)"}}, "experiment_in_all_cases": "purified protein", "conditions_in_all_cases": "oxidation, 1 mM NAD+, 50 mM ammonium bicarbonate pH 7.9, 25 °C", "key": {"purified protein [1]": {"substrate": "O=C(O)[C@@H](O)[C@@H](O)[C@H](O)CO", "type": "biochemical, Sphingomonas sp. A1"}, "purified protein [2]": {"substrate": "O=C(O)[C@H](O)[C@H](O)[C@H](O)CO", "type": "biochemical, Sphingomonas sp. A1"}, "purified protein [3]": {"substrate": "O=C(O)[C@@H](O)[C@@H](O)[C@@H](O)[C@H](O)CO", "type": "biochemical, Sphingomonas sp. A1"}, "purified protein [4]": {"substrate": "O=C(O)[C@H](O)[C@@H](O)[C@@H](O)[C@H](O)CO", "type": "biochemical, Sphingomonas sp. A1"}, "purified protein [5]": {"substrate": "O=C(O)[C@@H](O)[C@H](O)[C@H](O)CO", "type": "biochemical, Sphingomonas sp. A1"}, "purified protein [6]": {"substrate": "OCC(O)CO", "type": "biochemical, Sphingomonas sp. A1"}, "purified protein [7]": {"substrate": "O=C(O)C(=O)C[C@H](O)[C@H](O)CO", "type": "biochemical, Sphingomonas sp. A1"}, "purified protein [8]": {"substrate": "O=C(O)[C@H](O)[C@@H](O)[C@H](O)CO", "type": "biochemical, Sphingomonas sp. A1"}, "purified protein [9]": {"substrate": "O=C(O)[C@@H](O)[C@H](O)[C@H](O)[C@H](O)CO"}, "purified protein [10]": {"substrate": "O=C(O)[C@H](O)[C@H](O)[C@H](O)[C@H](O)CO"}, "purified protein [11]": {"substrate": "O=C(O)[C@H](O)[C@@H](O)[C@H](O)[C@H](O)CO"}, "purified protein [12]": {"substrate": "O=C(O)[C@@H](O)[C@@H](O)[C@H](O)[C@H](O)CO"}}}
{"protein": "B1", "values": [{"measurement": "Km", "setting": "purified protein [1]", "value": "27 ± 2", "unit": "mM"}, {"measurement": "Vmax", "setting": "purified protein [1]", "value": 0.0086, "unit": "µmol/min/mg"}, {"measurement": "kcat", "setting": "purified protein [1]", "value": "0.0042 ± 0.0001", "unit": "s⁻¹"}, {"measurement": "kcat/Km", "setting": "purified protein [1]", "value": "0.16 ± 0.02", "unit": "M⁻¹ s⁻¹"}, {"measurement": "Km", "setting": "purified protein [2]", "value": "16 ± 1", "unit": "mM"}, {"measurement": "Vmax", "setting": "purified protein [2]", "value": 0.01, "unit": "µmol/min/mg"}, {"measurement": "kcat", "setting": "purified protein [2]", "value": "0.0052 ± 0.0001", "unit": "s⁻¹"}, {"measurement": "kcat/Km", "setting": "purified protein [2]", "value": "0.33 ± 0.03", "unit": "M⁻¹ s⁻¹"}, {"measurement": "Km", "setting": "purified protein [3]", "value": "6 ± 1", "unit": "mM"}, {"measurement": "Vmax", "setting": "purified protein [3]", "value": 0.042, "unit": "µmol/min/mg"}, {"measurement": "kcat", "setting": "purified protein [3]", "value": "0.021 ± 0.001", "unit": "s⁻¹"}, {"measurement": "kcat/Km", "setting": "purified protein [3]", "value": "3.4 ± 0.9", "unit": "M⁻¹ s⁻¹"}, {"measurement": "Km", "setting": "purified protein [4]", "value": "50 ± 5", "unit": "mM"}, {"measurement": "Vmax", "setting": "purified protein [4]", "value": 0.016, "unit": "µmol/min/mg"}, {"measurement": "kcat", "setting": "purified protein [4]", "value": "0.0079 ± 0.0003", "unit": "s⁻¹"}, {"measurement": "kcat/Km", "setting": "purified protein [4]", "value": "0.16 ± 0.02", "unit": "M⁻¹ s⁻¹"}, {"measurement": "Km", "setting": "purified protein [5]", "value": "27 ± 3", "unit": "mM"}, {"measurement": "Vmax", "setting": "purified protein [5]", "value": 0.01, "unit": "µmol/min/mg"}, {"measurement": "kcat", "setting": "purified protein [5]", "value": "0.0048 ± 0.0001", "unit": "s⁻¹"}, {"measurement": "kcat/Km", "setting": "purified protein [5]", "value": "0.18 ± 0.02", "unit": "M⁻¹ s⁻¹"}, {"measurement": "Km", "setting": "purified protein [6]", "value": "100 ± 10", "unit": "mM"}, {"measurement": "Vmax", "setting": "purified protein [6]", "value": 0.011, "unit": "µmol/min/mg"}, {"measurement": "Km", "setting": "purified protein [7]", "value": "13 ± 3", "unit": "mM"}, {"measurement": "Vmax", "setting": "purified protein [7]", "value": 2.8, "unit": "µmol/min/mg"}, {"measurement": "kcat", "setting": "purified protein [7]", "value": "1.4 ± 0.08", "unit": "s⁻¹"}, {"measurement": "kcat/Km", "setting": "purified protein [7]", "value": "100 ± 30", "unit": "M⁻¹ s⁻¹"}, {"measurement": "Km", "setting": "purified protein [8]", "value": "24 ± 2", "unit": "mM"}, {"measurement": "Vmax", "setting": "purified protein [8]", "value": 0.066, "unit": "µmol/min/mg"}, {"measurement": "kcat", "setting": "purified protein [8]", "value": "0.032 ± 0.002", "unit": "s⁻¹"}, {"measurement": "kcat/Km", "setting": "purified protein [8]", "value": "1.4 ± 0.2", "unit": "M⁻¹ s⁻¹"}, {"measurement": "Km", "setting": "purified protein [9]", "value": "24 ± 4", "unit": "mM"}, {"measurement": "Vmax", "setting": "purified protein [9]", "value": 0.39, "unit": "µmol/min/mg"}, {"measurement": "kcat", "setting": "purified protein [9]", "value": 0.19, "unit": "s⁻¹"}, {"measurement": "kcat/Km", "setting": "purified protein [9]", "value": 8, "unit": "M⁻¹ s⁻¹"}, {"measurement": "Km", "setting": "purified protein [10]", "value": "16 ± 2", "unit": "mM"}, {"measurement": "Vmax", "setting": "purified protein [10]", "value": 0.36, "unit": "µmol/min/mg"}, {"measurement": "kcat", "setting": "purified protein [10]", "value": 0.18, "unit": "s⁻¹"}, {"measurement": "kcat/Km", "setting": "purified protein [10]", "value": 11, "unit": "M⁻¹ s⁻¹"}, {"measurement": "Km", "setting": "purified protein [11]", "value": "12 ± 1", "unit": "mM"}, {"measurement": "Vmax", "setting": "purified protein [11]", "value": 2, "unit": "µmol/min/mg"}, {"measurement": "kcat", "setting": "purified protein [11]", "value": 0.98, "unit": "s⁻¹"}, {"measurement": "kcat/Km", "setting": "purified protein [11]", "value": 82, "unit": "M⁻¹ s⁻¹"}, {"measurement": "Km", "setting": "purified protein [12]", "value": "14 ± 1", "unit": "mM"}, {"measurement": "Vmax", "setting": "purified protein [12]", "value": 1.1, "unit": "µmol/min/mg"}, {"measurement": "kcat", "setting": "purified protein [12]", "value": 0.53, "unit": "s⁻¹"}, {"measurement": "kcat/Km", "setting": "purified protein [12]", "value": 38, "unit": "M⁻¹ s⁻¹"}]}
